Experimental data reported in patent US20190112365A1 (EISAI R AND D MANAGEMENT, published 2019).
Where “and” joins values, the source holds several entries; their conditions need not be identical. Identical values can stand only once. Like-named read-outs stand apart in the source and are kept apart here.

T1: HVPGG site of Tau (15-mer array peptides containing HVPGG) (human)
T1 peptide: HVPGG


Key:
[1] = biological target: T2, Human Tau 2N4R, wild type, recombinant full length (human, UniProt P10636 2-758); experiment: direct ELISA on coated 2N4R Tau
T2 construct: Full length 2N4R isoform; monomer in SPR and ELISA; heparin-induced aggregates or seeds in the functional assays; also called Tau441; Tau-441
Description: To test direct binding to Tau, 2N4R Tau was coated on 96-well plates and various concentrations of humanized mAbs were added to the wells. MAbs bound to Tau were detected with either an HRP-conjugated anti-mouse antibody (mouse [ms]7G6) or anti-human antibody (remaining samples). Samples were incubated for 1 h at room temperature in 96-well plates coated with 2N4R Tau. Following washing, HRP-conjugated anti-mouse or anti-human detection antibodies were added to the wells. The anti-mouse antibody was used to detect ms7G6. The amount of HRP activity in each well was measured by QuantaBlu fluorescent substrate and the RFUs were detected by a SpectraMax M5 plate reader.
Tau binding was analyzed by a direct ELISA as above. Samples were incubated for 1 hour at room temperature in 96-well plates coated with wild-type 2N4R Tau. After a wash step, HRP-conjugated anti-mouse or anti-human detection antibodies were added to the wells. The anti-mouse antibody was used to detect ms7G6. The amount of HRP activity in each well was measured by QuantaBlu fluorescent substrate and the RFUs were detected by a SpectraMax M5 plate reader. […] Therefore, Vκ Glu34 was critical for antigen binding.

[2] = biological target: T2, Human Tau 2N4R, wild type, recombinant …; experiment: SPR, streptavidin capture; against 7G6-HCzu8-LCzu6
Description: (§1) 400 μg of each antibody was diluted to 2 mg/mL and buffer-exchanged into 0.1 M sodium bicarbonate, pH 8.3 using 0.5 mL Zeba™ 40 kDa MWCO desalting columns (Thermo). NHS-PEG4-biotin, prepared immediately before use by dissolving in water to a 20 mM final stock concentration, was added to antibodies at a 5:1 molar ratio (biotin:MAb) and conjugated for 1 hr at room temperature. Excess biotin was removed by two sequential buffer exchanges into 1×DPBS using 0.5 mL Zeba™ 40 kDa MWCO desalting columns. For the BIAcore™ assay, antibodies were diluted to 2 μg/mL in PBS-P+/0.2% BSA (the same preparation used for the running buffer), centrifuged at 14,000 g for 5 min at room temperature, and the supernatant transferred to a new tube. Injection time was subsequently determined for each antibody to achieve a capture level of ˜225 RU.
(§2) Biotinylated humanized and mouse mAbs were captured on a streptavidin-coated chip and kₐ, kd, and KD were determined for binding to Tau (Table 11). […] The affinity of 7G6-HCzu8-LCzu6, 7G6-HCzu24-LCzu15, 7G6-HCzu24-LCzu18, 7G6-HCzu25-LCzu15, and 7G6-HCzu25-LCzu18 were all similar.

[3] = biological target: T2, Human Tau 2N4R, wild type, recombinant …; experiment: SPR BIAcore, biotinylated mAb on streptavidin (CAP) chip, single cycle, 1:1 Langmuir
Description: as §1, §2

[4] = biological target: T2, Human Tau 2N4R, wild type, recombinant …; experiment: direct ELISA on coated 2N4R Tau; remark: listed apart in the source
[5] = biological target: T2, Human Tau 2N4R, wild type, recombinant …; experiment: SPR BIAcore, anti-human capture, monomeric Tau, 1:1 Langmuir
Description: All experiments were performed using a BIAcore™ T-100 instrument (GE Healthcare). 10 μL anti-human IgG (monoclonal mouse anti-human Fc) from human antibody capture kit (GE Healthcare) was diluted to 25 μL/mL in 200 μL final immobilization buffer (10 mM sodium acetate, pH 5.0). The flow rate was set to 5 μL/min, flowpath 1. Fifty μL N-hydroxysuccinamide (NETS) and 50 μL 1-ethyl-3-(3-dimethylaminopropyl) carbidiimide (EDC) were mixed and injected for 420 sec to activate the CM5 chip surface. The diluted antibody was injected for 360 seconds followed by 1 M ethanolamine for 420 seconds. The flowpath was then switched to flowpath 2. A new EDC/NHS mixture was prepared and the procedure was repeated for flow cell 2. The surface was conditioned by 2 injections of 30 sec using flowpath 1, 2 at 30 μL/min of 3M MgCl₂. For the anti-mouse surface, 10 μL anti-mouse IgG (polyclonal rabbit anti-mouse IgG) from mouse antibody capture kit (GE Healthcare) was diluted to 30 μL/mL in 324 μL final immobilization buffer (10 mM sodium acetate, pH 5.0). The flow rate was set to 5 μL/min, flowpath 3. Fifty μL NHS and 50 μL EDC were mixed and injected for 420 sec to activate the chip surface. The diluted antibody was injected for 420 sec. 1 M ethanolamine was injected for 420 sec. Flow path was switched to flowpath 4. A new EDC/NHS mixture was prepared and the procedure was repeated for flow cell 4. The surface was conditioned by 2 injections of 30 sec using flowpath 3, 4 at 30 μL/min of 10 mM glycine, pH 1.7.
Tau binding for humanized mAbs was analyzed by BIAcore™ in two different formats. The first format was performed as above, i.e. mAbs were captured with an immobilized species-specific anti-Fc antibody. […] In the second format, biotinylated mAbs were captured on a streptavidin-coated chip. This latter format allowed direct comparison of Tau binding affinity between humanized and the parental mouse antibody since the capture method was identical.
The final humanized mAbs were analyzed by BIAcore™ to determine the kₐ, kd, and KD for binding to Tau as above (Table 10).

[6] = biological target: T2, Human Tau 2N4R, wild type, recombinant …; experiment: SPR, streptavidin capture; against 7G6-HCzu24 and 7G6-HCzu25 mAbs
Description: as §1, §2

[7] = biological target: T1, HVPGG site of Tau (15-mer array …); experiment: peptide microarray; HVPGG site of the second repeat region against HQPGG (repeat region 1)
Description: (§3) The diluted antibody was incubated on the chip for 16 hours at 4° C. with shaking at 140 rpm. Primary antibody was removed and the chip was washed in PBS (pH 7.4)/0.05% Tween 20. Wash buffer was removed and goat anti-mouse IgG (H+L) DyLight™680 (1:5000) and an anti-HA tag DyLight™ 800 (1:2000) in the same buffer as the primary antibody was then incubated for 45 minutes at room temperature on the chip. Detection antibody was removed and the chip was washed once again as previously. Fluorescence images were acquired on the LI-COR Odyssey™ Imaging System and the microarray data was finally analyzed using the PepSlide™ Analyser software.

[8] = biological target: T1, HVPGG site of Tau (15-mer array …); experiment: peptide microarray; HVPGG site of the fourth repeat region against HKPGG (repeat region 3)
Description: as §3

[9] = biological target: T2, Human Tau 2N4R, wild type, recombinant …; experiment: SPR BIAcore, anti-human Fc capture, multi-cycle, 1:1 Langmuir, average of flow cells
Description: A 0 nM Tau protein solution was prepared by adding 3 mL Assay Running Buffer to labeled 5 mL tube. Analyte dilutions were transferred to labeled 4 mL plastic vials and capped with type 5 caps, vortexed briefly to remove any air bubbles adhered to tube walls or bottom, and placed in Sample and Reagent Rack 1. For chip conditioning analyte sample, 5 μL of 1 μM Tau protein solution supernatant was removed and diluted to 500 μL in Assay Buffer in a 7 mm plastic vial, capped, vortexed briefly to dislodge adhered air bubbles, and placed in Sample and Reagent Rack 1. Humanized antibodies were captured on flow cells 2, 3, and 4 sequentially at a flow rate of 10 μL/min for a contact time of 36 sec. Dilutions of Tau protein were injected over all 4 flow cells at a flow rate of 30 μL/min for a contact time of 300 sec. Dissociation was followed for 1800 sec. Following each cycle, the surface was regenerated by two sequential injections of 30 sec at 30 μL/min of 3 M MgCl₂ over all four flow cells. After the run, kinetic data fitting was performed using a 1:1 Langmuir model.
The affinity of recombinant human wild-type 2N4R Tau protein to 7G6-HCzu25LCzu18 antibody was determined using an antibody-capture format assay. Following capture of 7G6-HCzu25LCzu18 antibody, human Tau protein was injected over the ligand surface for 300 sec, followed by observation and measurement of dissociation for 1800 sec. After each antibody capture, Tau protein binding, and dissociation cycle, the chip surface was regenerated to the anti-human antibody capture surface using 3M MgCl₂, as required by the manufacturer. Tau protein was analyzed in a concentration range from 100 nM to 0.046 nM (3-fold diluted). The assay was performed in multi-cycle mode, such that a dissociation was performed for each tau protein injection. Each ligand was analyzed on all three flow cells (fc2, fc3, and fc4) in triplicate, in order to eliminate any flow cell-specific effects.
Binding data was double-referenced, meaning referenced to both fc1 with no ligand bound and to buffer analyte injections (0 nM Tau protein). […]

[10] = biological target: T1, HVPGG site of Tau (15-mer array …); experiment: peptide microarray; HVPGG site of the fourth repeat region against HQPGG (repeat region 1)
Description: as §3

[11] = biological target: T1, HVPGG site of Tau (15-mer array …); experiment: peptide microarray; HVPGG site of the second repeat region against HKPGG (repeat region 3)
Description: as §3

[12] = biological target: T2, Human Tau 2N4R, wild type, recombinant …; experiment: SPR, streptavidin capture; against ms7G6
Description: as §1, §2

T2 sequence (P10636 other isoform, or with tags, fused parts or gaps limits assumed): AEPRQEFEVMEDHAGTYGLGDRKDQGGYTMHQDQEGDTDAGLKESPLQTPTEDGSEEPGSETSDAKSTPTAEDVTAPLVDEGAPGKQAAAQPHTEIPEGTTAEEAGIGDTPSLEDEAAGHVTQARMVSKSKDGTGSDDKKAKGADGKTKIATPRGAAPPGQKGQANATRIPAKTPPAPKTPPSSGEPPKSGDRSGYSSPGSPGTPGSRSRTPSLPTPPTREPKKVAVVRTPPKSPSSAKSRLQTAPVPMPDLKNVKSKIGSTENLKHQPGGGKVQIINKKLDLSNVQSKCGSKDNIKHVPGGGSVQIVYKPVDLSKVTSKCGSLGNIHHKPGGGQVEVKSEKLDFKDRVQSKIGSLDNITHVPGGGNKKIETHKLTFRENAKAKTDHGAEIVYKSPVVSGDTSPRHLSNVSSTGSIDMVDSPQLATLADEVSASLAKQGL

Kd [3] [nM] | koff [3] [s⁻¹] | kon [3] [M⁻¹ s⁻¹] | Kd [5] [nM] | koff [5] [s⁻¹] | kon [5] [M⁻¹ s⁻¹] | fold drop in affinity [6] [fold] | also measured | Binder
– | – | – | – | – | – | – | binding result [1]: no binding | 7G6-HCzu5-LCzu9 (antibody, human IgG1, kappa, V domains shown, humanized, human IgG1 kappa; also called 7G6-LCzu9) VH: QVQLVQSGAEVKKPGASVKVSCKASGYTFTTYWITWVRQAPGQGLEWMGDIYPGSSISNYNEKFKSRVTMTVDTSTSTAYMELSSLRSEDTAVYYCAREDGYDAWFAYWGQGTLVTVSS VL: DVVMTQSPLSLPVTLGQPASISCRSSQSIVHSNGNTYLNWFQQRPGQSPRRLISKVSNRFSGVPDRFSGSGSGTDFTLKISRVEAEDVGVYYCFQGSHVPFTFGQGTKLEIKR
0.138 | 0.000313 | 2.28e+06 | – | – | – | – | fold drop in affinity [2]: < 2 fold | 7G6-HCzu8-LCzu21 (antibody, human IgG1, kappa, V domains shown, N-terminal pyroglutamic acid, humanized, human IgG1 kappa) VH: QVQLVQSGAEVKKPGASVKVSCKASGYTFTTYWITWVRQAPGQGLEWMGDIYPGSSISNYAQKFQGRVTMTRDTSTSTVYMELSSLRSEDTAVYYCAREDGYDAWFAYWGQGTLVTVSS VL: DVVMTQSPLSLPVTLGQPASISCRSSQSILHSNGNTYLEWFQQRPGQSPRLLISKVSNRFSGVPDRFSGSGSGTDFTLKISRVEAEDVGVYYCFQGSHVPFTFGQGTKLEIKR
– | – | – | – | – | – | – | binding result [4]: no binding | 7G6-HCzu12-LCzu17 (antibody, human IgG1, kappa, V domains shown, humanized, human IgG1 kappa; also called 7G6-LCzu17) VH: EVQLLESGGGLVQPGGSLRLSCAASGYTFTTYWITWVRQAPGKGLEWVGDIYPGSSICNYNEKFKSRFTISVDNSKSTAYLQMNSLRAEDTAVYYCAREDGYDAWFAYWGQGTLVTVSS VL: DVQMTQSPSSLSASVGDRVTITCRSSQSIVHSNGNTYLNWYQQKPGKAPKLLISKVSNRFSGVPSRFSGSGSGTDFTLTISSLQPEDFATYYCFQGSHVPFTFGQGTKLEIKR
0.152 | 0.000332 | 2.18e+06 | 0.25 | 0.00039 | 1.61e+06 | ~2 | – | 7G6-HCzu23-LCzu15 (antibody, human IgG1, kappa, humanized, human IgG1 kappa) heavy: not shown light: DVQMTQSPSSLSASVGDRVTITCRSSQSILHSNGNTYLEWYQQKPGKAPKLLISKVSNRFSGVPSRFSGSGSGTDFTLTISSLQPEDFATYYCFQGSHVPFTFGQGTKLEIKRTVAAPSVFIFPPSDEQLKSGTASVVCLLNNFYPREAKVQWKVDNALQSGNSQESVTEQDSKDSTYSLSSTLTLSKADYEKHKVYACEVTHQGLSSPVTKSFNRGEC
0.182 | 0.00039 | 2.14e+06 | 0.22 | 0.00037 | 1.71e+06 | ~2 | – | 7G6-HCzu23-LCzu18 (antibody, human IgG1, kappa, humanized, human IgG1 kappa) heavy: not shown light: DIQMTQSPSSLSASVGDRVTITCRSSQSILHSNGNTYLEWYQQKPGKAPKLLISKVSNRFSGVPSRFSGSGSGTDFTLTISSLQPEDFATYYCFQGSHVPFTFGQGTKLEIKRTVAAPSVFIFPPSDEQLKSGTASVVCLLNNFYPREAKVQWKVDNALQSGNSQESVTEQDSKDSTYSLSSTLTLSKADYEKHKVYACEVTHQGLSSPVTKSFNRGEC
0.0881 | 0.000307 | 3.5e+06 | 0.13 | 0.00014 | 1.11e+06 | – | fold preference in binding (average signal intensities) [7]: 65 fold; fold preference in binding (average signal intensities) [8]: 119 fold; Kd [9]: 0.0657 nM and 0.0659 nM and 0.0645 nM; koff [9]: 0.000126 s⁻¹ (2×) and 0.000123 s⁻¹; kon [9]: 1.92e+06 M⁻¹ s⁻¹ and 1.91e+06 M⁻¹ s⁻¹; fold preference in binding (average signal intensities) [10]: 77 fold; fold preference in binding (average signal intensities) [11]: 100 fold; fold drop in affinity [12]: ~1.4 fold | 7G6-HCzu25-LCzu18 (antibody, human IgG1, kappa, humanized, human IgG1 kappa; also called 7G6-zuHC25-zuLC18; 7G6-HCzu25-LCzu18-HEK) heavy: not shown light: DIQMTQSPSSLSASVGDRVTITCRSSQSILHSNGNTYLEWYQQKPGKAPKLLISKVSNRFSGVPSRFSGSGSGTDFTLTISSLQPEDFATYYCFQGSHVPFTFGQGTKLEIKRTVAAPSVFIFPPSDEQLKSGTASVVCLLNNFYPREAKVQWKVDNALQSGNSQESVTEQDSKDSTYSLSSTLTLSKADYEKHKVYACEVTHQGLSSPVTKSFNRGEC
